In experiment [1] the target is T1, amphyphisin SH3 (AMPH_HUMAN), P49418.
T1 chain: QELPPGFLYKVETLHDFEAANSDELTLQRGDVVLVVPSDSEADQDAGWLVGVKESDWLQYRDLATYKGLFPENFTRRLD
Description: SPOT array.

For experiment [2], the target named is endophilin SH3 (SH3G2_HUMAN), Q99962. The experiment is described as follows: SPOT array.

B1: Q99760 384-397 (peptide)
chain: LKAPPARPVKGAYR
B1: the normalised SPOT signal, Boehringer light units (BLU); mean over the file's lines of this peptide was 238 in experiment [1] and 3650 in experiment [2].

B2: Q9ULA1 146-159 (peptide)
chain: LGLSFRRPNVITLL
As to B2, the normalised SPOT signal, Boehringer light units (BLU); mean over the file's lines of this peptide was determined as 38.4 in experiment [1] and 300 in experiment [2].

B3: P07360 19-32 (peptide)
chain: LGQKPQRPRRPASP
Regarding B3, the results for the normalised SPOT signal, Boehringer light units (BLU); mean over the file's lines of this peptide in experiment [1] and in experiment [2] were 16800 and 34600, respectively.

B4: P30622 114-127 (peptide)
chain: LKGIFTRPSKLTRK
For B4, the normalised SPOT signal, Boehringer light units (BLU); mean over the file's lines of this peptide was 121 in experiment [1] and 192 in experiment [2].

B5: Q96FN5 451-465 (peptide)
chain: APPLPVRPPKTSPG
Turning to B5, the normalised SPOT signal, Boehringer light units (BLU); mean over the file's lines of this peptide was 4490 in experiment [1] and 2280 in experiment [2].

B6: Q9Y570 9-23 (peptide)
chain: LGRLPSRPPLPGSG
Take B6: the normalised SPOT signal, Boehringer light units (BLU); mean over the file's lines of this peptide was 269 in experiment [1] and 14800 in experiment [2].

B7: O43630 494-507 (peptide)
chain: LKEILKRPVDPIRA
Turning to B7, the normalised SPOT signal, Boehringer light units (BLU); mean over the file's lines of this peptide in experiment [1] amounted to 5.8; in experiment [2] it was 55.3.

B8: Q9HCM7 689-702 (peptide)
chain: LLEPPERPYRDREP
On to B8, for which the normalised SPOT signal, Boehringer light units (BLU); mean over the file's lines of this peptide in experiment [1] was found to be 188; in experiment [2], 80.4.

B9: O60725 54-67 (peptide)
chain: LLLLLYRPPRYQIA
B9: the normalised SPOT signal, Boehringer light units (BLU); mean over the file's lines of this peptide in experiment [1] was determined as 159; in experiment [2], 89.6.

B10: Q9NRK3 42-56 (peptide)
chain: APPPPSRPPQPRPG
With B10, the figures for the normalised SPOT signal, Boehringer light units (BLU); mean over the file's lines of this peptide in experiment [1] and in experiment [2] were 856 and 3870, respectively.

B11: P54259 848-862 (peptide)
chain: LGPVPHRPPFEPGS
In the case of B11, the figures for the normalised SPOT signal, Boehringer light units (BLU); mean over the file's lines of this peptide in experiment [1] and in experiment [2] were 65.2 and 41.8, respectively.

B12: Q9H9G7 14-27 (peptide)
chain: LLMVPRRPGYGAMG
As to B12, the normalised SPOT signal, Boehringer light units (BLU); mean over the file's lines of this peptide in experiment [1] came to 183; in experiment [2], 3260.

B13: Q9P0V3 740-753 (peptide)
chain: LLEQILRPSKFLTY
Regarding B13, the normalised SPOT signal, Boehringer light units (BLU); mean over the file's lines of this peptide in experiment [1] was found to be 29.9; in experiment [2], 6.9.

B14: Q9UMF0 113-126 (peptide)
chain: LIRTFQRPDRVELM
For the molecule B14, the normalised SPOT signal, Boehringer light units (BLU); mean over the file's lines of this peptide amounted to 6100 in experiment [1] and 224 in experiment [2].

B15: Q9H7S9 349-363 (peptide)
chain: LGLPPGKPPSSSPL
Consider B15, for which the results for the normalised SPOT signal, Boehringer light units (BLU); mean over the file's lines of this peptide in experiment [1] and in experiment [2] were 23.4 and 45.5, respectively.

B16: Q9P145 28-41 (peptide)
chain: LLSWIKRPSQRALR
On to B16, for which the normalised SPOT signal, Boehringer light units (BLU); mean over the file's lines of this peptide was determined as 28.6 in experiment [1] and 568 in experiment [2].

B17: Q13290 172-185 (peptide)
chain: LGLLFRRPEALQVG
For B17, the normalised SPOT signal, Boehringer light units (BLU); mean over the file's lines of this peptide in experiment [1] was 12.2; in experiment [2] it was 61.1.

B18: P25100 499-512 (peptide)
chain: LLGPFRRPTTQLRA
Turning to B18, the normalised SPOT signal, Boehringer light units (BLU); mean over the file's lines of this peptide is 336 in experiment [1] and 614 in experiment [2].

B19: Q13011 68-81 (peptide)
chain: LHVQLNRPNKRNAM
In the case of B19, the figures for the normalised SPOT signal, Boehringer light units (BLU); mean over the file's lines of this peptide in experiment [1] and in experiment [2] were 193 and 128, respectively.

B20: Q9H6X1 45-59 (peptide)
chain: LLLPPPRPPHSDIT
For the molecule B20, the normalised SPOT signal, Boehringer light units (BLU); mean over the file's lines of this peptide in experiment [1] came out at 873; in experiment [2] it was 1430.

B21: Q8WU02 149-162 (peptide)
chain: APPELRRPSHLHTS
B21: the normalised SPOT signal, Boehringer light units (BLU); mean over the file's lines of this peptide in experiment [1] amounted to 33.1; in experiment [2], 145.

B22: Q9P2D8 4-17 (peptide)
chain: LLDTIKRPALQGLS
In the case of B22, the normalised SPOT signal, Boehringer light units (BLU); mean over the file's lines of this peptide was 41.8 in experiment [1] and 47.1 in experiment [2].

B23: O60307 271-284 (peptide)
chain: LLIIISRPARLLES
For the molecule B23, the normalised SPOT signal, Boehringer light units (BLU); mean over the file's lines of this peptide was found to be 90.2 in experiment [1] and 87.4 in experiment [2].

B24: Q9NQQ2 431-444 (peptide)
chain: LKVWPPRPGRWPSF
For B24, the normalised SPOT signal, Boehringer light units (BLU); mean over the file's lines of this peptide in experiment [1] is 2610; in experiment [2] it was 1090.

B25: P42568 55-68 (peptide)
chain: LHESFPRPKRVSKD
With B25, the normalised SPOT signal, Boehringer light units (BLU); mean over the file's lines of this peptide was found to be 3510 in experiment [1] and 391 in experiment [2].

B26: P13942 112-125 (peptide)
chain: LGLELGRPVRFLYE
With B26, the normalised SPOT signal, Boehringer light units (BLU); mean over the file's lines of this peptide was 218 in experiment [1] and 245 in experiment [2].

B27: O60241 813-827 (peptide)
chain: LILPPPRPPLAVTS
Turning to B27, the normalised SPOT signal, Boehringer light units (BLU); mean over the file's lines of this peptide was 1060 in experiment [1] and 3500 in experiment [2].

B28: Q00059 151-164 (peptide)
chain: LLGKPKRPRSAYNV
B28: the results for the normalised SPOT signal, Boehringer light units (BLU); mean over the file's lines of this peptide in experiment [1] and in experiment [2] were 45.3 and 268, respectively.

B29: Q9Y5L9 821-835 (peptide)
chain: LGPVPVRPPPGPEL
For the molecule B29, the normalised SPOT signal, Boehringer light units (BLU); mean over the file's lines of this peptide amounted to 33.4 in experiment [1] and 81.8 in experiment [2].

B30: Q12789 943-956 (peptide)
chain: LIRFLPRPIRQQLL
On to B30, for which the results for the normalised SPOT signal, Boehringer light units (BLU); mean over the file's lines of this peptide in experiment [1] and in experiment [2] were 1740 and 3730, respectively.

B31: Q15715 82-95 (peptide)
chain: LIQELRRPKYSIYF
Regarding B31, the values for the normalised SPOT signal, Boehringer light units (BLU); mean over the file's lines of this peptide in experiment [1] and in experiment [2] were 46.5 and 169, respectively.

B32: Q9NR84 149-162 (peptide)
chain: LKVQLKRPKDANRP
As for B32, the normalised SPOT signal, Boehringer light units (BLU); mean over the file's lines of this peptide in experiment [1] turned out to be 28.8; in experiment [2] it was 69.

B33: Q9H6Y5 142-155 (peptide)
chain: LHLVIRRPLETHPG
For B33, the normalised SPOT signal, Boehringer light units (BLU); mean over the file's lines of this peptide in experiment [1] stood at 49.4; in experiment [2], 596.

B34: Q96SW7 100-113 (peptide)
chain: LLFSLRRPSSTVTM
With B34, the normalised SPOT signal, Boehringer light units (BLU); mean over the file's lines of this peptide in experiment [1] is 54.9; in experiment [2], 537.

B35: O75593 148-162 (peptide)
chain: LHGRPYRPPSPPPP
On to B35, for which the normalised SPOT signal, Boehringer light units (BLU); mean over the file's lines of this peptide was 218 in experiment [1] and 246 in experiment [2].

B36: Q9NWT5 57-70 (peptide)
chain: LLLGIRRPEFLSRP
In the case of B36, the normalised SPOT signal, Boehringer light units (BLU); mean over the file's lines of this peptide in experiment [1] is 51.2; in experiment [2] it was 1340.

B37: O14927 499-512 (peptide)
chain: LGLRLSRPYRLAAG
As for B37, the normalised SPOT signal, Boehringer light units (BLU); mean over the file's lines of this peptide turned out to be 1650 in experiment [1] and 315 in experiment [2].

B38: O95141 51-64 (peptide)
chain: LLLHPRRPRLHPGT
For the molecule B38, the normalised SPOT signal, Boehringer light units (BLU); mean over the file's lines of this peptide in experiment [1] amounted to 87; in experiment [2] it was 1540.

The values are drawn from PMC314469, “Protein Interaction Networks by Proteome Peptide Scanning” (PLoS Biology, 2004).
